From the supplement of paper PMC10567573

B1: INTS4 (parent)
chain: TIIEPAGESDNPLRFTSGLVVALD

Variants of: B1
Experiment: protein stability index of a GFP-peptide fusion (GPS, HEK-293T) (PSI 1-6); higher = more stable
Details: c terminus: a fixed tail appended
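Also: lentivirally expressed fusions sorted by FACS into six bins by GFP to DsRed ratio, PSI derived from sequencing read proportions per bin multiplied by bin number.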

Compared with TIIEPAGESDNPLTFTSGLVVALD [R14T], TIIEPAGESDNPLHFTSGLVVALD [R14H] is higher in protein stability index: 2.96 for the first, 3.91 for the second.

First: TIIEPAGESDNPLFFTSGLVVALD [R14F]
Second: TIIEPAGESDNPLIFTSGLVVALD [R14I]
The protein stability index of the first is lower: 2.04 for the first, 2.46 for the second.

Compared with TIIEPAGESDNPLVFTSGLVVALD [R14V], TIIEPAGESDNPLYFTSGLVVALD [R14Y] is lower in protein stability index: 2.86 for the first, 2.21 for the second.

Going from TIIEPAGESDNPLRFTSGLVVAQD [L23Q] to TIIEPAGESDNPLRFTSGLVVADD [L23D], the protein stability index falls from 4.56 to 4.53.

First: TIIEPAGESDNPLRFTSGLVVAWD [L23W]
Second: TIIEPAGESDNPLRFTSGLVVAFD [L23F]
The protein stability index of the first is higher: 2.97 for the first, 2.75 for the second.

First: TIIEFAGESDNPLRFTSGLVVALD [P5F]
Second: TIEEPAGESDNPLRFTSGLVVALD [I3E]
The protein stability index of the first is lower: 1.53 for the first, 4.4 for the second.

Compared with TINEPAGESDNPLRFTSGLVVALD [I3N], TICEPAGESDNPLRFTSGLVVALD [I3C] is lower in protein stability index: 3.51 for the first, 3.2 for the second.

First: TILEPAGESDNPLRFTSGLVVALD [I3L]
Second: TIPEPAGESDNPLRFTSGLVVALD [I3P]
The protein stability index of the first is lower: 2.76 for the first, 3.42 for the second.

Compared with TIIEPAKESDNPLRFTSGLVVALD [G7K], TIIEPAAESDNPLRFTSGLVVALD [G7A] is higher in protein stability index: 2.94 for the first, 3.83 for the second.

Compared with TIIEPAPESDNPLRFTSGLVVALD [G7P], TIIEPALESDNPLRFTSGLVVALD [G7L] is lower in protein stability index: 3.04 for the first, 2.67 for the second.

First: TIIEPACESDNPLRFTSGLVVALD [G7C]
Second: TIIEPANESDNPLRFTSGLVVALD [G7N]
The protein stability index of the first is lower: 2.56 for the first, 2.77 for the second.

Compared with TIIEPAVESDNPLRFTSGLVVALD [G7V], TIIEPAGESDNPLRFTSGLVVTLD [A22T] is higher in protein stability index: 2.76 for the first, 2.78 for the second.

Going from TIIEPAGESDNPLRFTSGLVVVLD [A22V] to TIIEPAGESDNPLRFTSGLVVCLD [A22C], the protein stability index rises from 1.95 to 2.6.

Compared with TIIEPAGESRNPLRFTSGLVVALD [D10R], TIIEPAGESGNPLRFTSGLVVALD [D10G] is higher in protein stability index: 2.23 for the first, 2.56 for the second.

Compared with TIIEPAGESWNPLRFTSGLVVALD [D10W], TIIEPAGESANPLRFTSGLVVALD [D10A] is higher in protein stability index: 2.85 for the first, 2.96 for the second.

Going from TIIEPAGHSDNPLRFTSGLVVALD [E8H] to TIIEPAGESDSPLRFTSGLVVALD [N11S], the protein stability index rises from 2.23 to 2.6.

First: TIIEPAGESDDPLRFTSGLVVALD [N11D]
Second: TIIEPAGESDNPKRFTSGLVVALD [L13K]
The protein stability index of the first is lower: 3.33 for the first, 3.64 for the second.

Compared with TIIEPAGESDNPHRFTSGLVVALD [L13H], TIIEPAGESDNPNRFTSGLVVALD [L13N] is lower in protein stability index: 3.38 for the first, 3.06 for the second.

Compared with TIIEPAGESDNPDRFTSGLVVALD [L13D], TIIEPAGESDNPIRFTSGLVVALD [L13I] is lower in protein stability index: 4.41 for the first, 2.87 for the second.

Compared with TIIEPAGEEDNPLRFTSGLVVALD [S9E], TIIEPAGEADNPLRFTSGLVVALD [S9A] is lower in protein stability index: 3.73 for the first, 2.57 for the second.

Compared with TIIEPAGEHDNPLRFTSGLVVALD [S9H], TIIEPAGEVDNPLRFTSGLVVALD [S9V] is lower in protein stability index: 3.17 for the first, 2.92 for the second.

Compared with TIIEPAGESDNPLRFTSGIVVALD [L19I], TIIEPAGESDNPLRFTSGFVVALD [L19F] is lower in protein stability index: 2.71 for the first, 2.38 for the second.

First: TIIEPAGESDNPLRFTSGKVVALD [L19K]
Second: TIIEPAGESDNPLRFTSGQVVALD [L19Q]
The protein stability index of the first is higher: 4.27 for the first, 4.05 for the second.

TIIEPAGESDNPLRFTSGRVVALD [L19R] and TIIEPAGESDNPLRFTSGAVVALD [L19A] are the same in protein stability index: 4.01 for the first, 4.01 for the second.

Going from TIIEPAGESDNPLRFTSGLVAALD [V21A] to TIIEPAGESDNPLRFTSGLVIALD [V21I], the protein stability index falls from 3.36 to 2.78.

First: TIIEPAGESDNPLRFTSGLVNALD [V21N]
Second: TIIEPAGESDNPLRFTSGLVWALD [V21W]
The protein stability index of the first is higher: 3.63 for the first, 2.16 for the second.

Going from NIIEPAGESDNPLRFTSGLVVALD [T1N] to TIIEPAGESDNPLRFTLGLVVALD [S17L], the protein stability index falls from 3.36 to 3.12.

Going from TIIEPAGESDNPLRFTNGLVVALD [S17N] to TIIEPAGESDNPLRFTPGLVVALD [S17P], the protein stability index rises from 2.53 to 2.99.

First: TIIEPAGESDNPLRFTAGLVVALD [S17A]
Second: TIIEPAGESDNPLRFTWGLVVALD [S17W]
The protein stability index of the first is higher: 2.51 for the first, 2.14 for the second.

Going from TIIMPAGESDNPLRFTSGLVVALD [E4M] to TIITPAGESDNPLRFTSGLVVALD [E4T], the protein stability index rises from 2.1 to 2.34.

First: TIILPAGESDNPLRFTSGLVVALD [E4L]
Second: TIIEPAGESDNPLRFTSHLVVALD [G18H]
The protein stability index of the first is higher: 2.33 for the first, 2.21 for the second.

Compared with TIIEPAGESDNPLRFTSVLVVALD [G18V], TIIEPAGESDNPLRFTSTLVVALD [G18T] is higher in protein stability index: 2.15 for the first, 2.51 for the second.

Compared with TIIEPAGESDNPLRFHSGLVVALD [T16H], TIIEPAGESDNPLRFCSGLVVALD [T16C] is lower in protein stability index: 2.23 for the first, 1.91 for the second.

Compared with TIIEPAGESDNPLRFVSGLVVALD [T16V], TIIEPAGESDNPLRFPSGLVVALD [T16P] is higher in protein stability index: 2.01 for the first, 3 for the second.

Going from TIIEPAGESDNPLRMTSGLVVALD [F15M] to TIIEPAGESDNPLRITSGLVVALD [F15I], the protein stability index rises from 3.44 to 3.72.

Compared with TIIEPAGESDNPLRATSGLVVALD [F15A], TIIEPPGESDNPLRFTSGLVVALD [A6P] is lower in protein stability index: 4.29 for the first, 2.99 for the second.

Going from TIIEPHGESDNPLRFTSGLVVALD [A6H] to TIIEPIGESDNPLRFTSGLVVALD [A6I], the protein stability index falls from 2.75 to 2.73.

Going from TIIEPVGESDNPLRFTSGLVVALD [A6V] to TIIEPCGESDNPLRFTSGLVVALD [A6C], the protein stability index falls from 2.62 to 2.47.

Compared with TIIEPAGESDNPLRFTSGLIVALD [V20I], TIIEPAGESDNRLRFTSGLVVALD [P12R] is lower in protein stability index: 2.73 for the first, 2.65 for the second.

Going from TIIEPAGESDNNLRFTSGLVVALD [P12N] to TIIEPAGESDNVLRFTSGLVVALD [P12V], the protein stability index falls from 2.88 to 2.53.

Compared with TIIEPAGESDNQLRFTSGLVVALD [P12Q], TIIEPAGESDNDLRFTSGLVVALD [P12D] is lower in protein stability index: 3.73 for the first, 3.4 for the second.

Going from TIIEPAGESDNKLRFTSGLVVALD [P12K] to TIIEPAGESDNPLRFTSGLVVALN [D24N], the protein stability index falls from 2.61 to 2.12.

Compared with TIIEPAGESDNPLRFTSGLVVALA [D24A], TIIEPAGESDNPLRFTSGLVVALY [D24Y] is lower in protein stability index: 2.75 for the first, 2.31 for the second.

Compared with TIIEPAGESDNPLRFTSGLVVALP [D24P], TIIEPAGESDNPLRFTSGLVVALG [D24G] is higher in protein stability index: 2.31 for the first, 2.51 for the second.

Going from TTIEPAGESDNPLRFTSGLVVALD [I2T] to TFIEPAGESDNPLRFTSGLVVALD [I2F], the protein stability index rises from 3.21 to 3.8.

Going from THIEPAGESDNPLRFTSGLVVALD [I2H] to TCIEPAGESDNPLRFTSGLVVALD [I2C], the protein stability index falls from 3.18 to 2.84.

First: TGIEPAGESDNPLRFTSGLVVALD [I2G]
Second: TPIEPAGESDNPLRFTSGLVVALD [I2P]
The protein stability index of the first is lower: 3.51 for the first, 3.9 for the second.
